Results on two substances are retold here after paper PMC12404239.

In test [1] the target is SARS-CoV-2 spike glycoprotein (S) (SARS-CoV-2) (UniProt P0DTC2). In words: […], running buffer TBS, […].
The target in test [2] is influenza B haemagglutinin (HA) B/Maryland/15/16 (influenza B virus (B/Maryland/15/16)). Put plainly: […], running buffer TBS, […].

“SARS-CoV-2 spike glycoprotein (S) (from UniProt P0DTC2 14-1273) (natural protein)”: the stoichiometry N (commonly a count of units in the complex or per binding partner) in test [1] came out at 3.
“influenza B haemagglutinin (HA) B/Maryland/15/16 (natural protein)” showed a stoichiometry N in test [2] of 3.
